Measurements: patent US20200209238A1, “OPTIMIZING DIAGNOSTICS FOR GALACTOFURANOSE CONTAINING ANTIGENS” (The Johns Hopkins University, priority 2017, published 2020)

Legend:
[1] = test system: Aspergillus fumigatus conidia and hyphae; assay: rIntL-1 binding to conidia and hyphae, fluorescence microscopy
Procedure: Conidia from Aspergillus fumigatus were counted and adjusted to 10^6/mL in Sabouraud's Dextrose broth, and grown for 6 hours at 37° C. to germinate (forming hyphae). The collection of swollen, germinating conidia and growing hyphae from already-germinated conidia were killed with heat at 90° C. for 1 h. The fungal material (killed conidia and hyphae) was pelleted by centrifugation, resuspended in IntL-ELISA blocking buffer, and incubated with 10^−7 M rIntL-1 (FLAG-tagged) in presence of 10 μg/mL of either MAb476 or an irrelevant, isotype control antibody mouse IgM for 2 h at 30° C. Following washes with IntL-ELISA buffer, the material was resuspended in IntL-ELISA blocking buffer and incubated with a 1:50 diluted anti-FLAG tag antibody conjugated to the red fluorochrome phycoerythrin (PE). Again, after washes, the stained material was resuspended in IntL-ELISA blocking buffer, transferred to chamber slides and observed under a fluorescent microscope. The inventors performed experiments wherein Aspergillus ethanol precipitate and whole cells (conidia and hyphae) were exposed to rIntL-1 and then a sandwich assay using Rabbit polyclonal antibodies to INTL-1 and goat anti-rabbit antibodies with a fluorescent ligand were performed in buffer comprising 10 mM CaCl2). […] Thus, IntL-1 could be the competitive agent which is interfering with the inventors' antibodies to galF.

[2] = test system: Aspergillus ethanol precipitate (EP); assay: rIntL-1 binding to Aspergillus ethanol precipitate, ELISA; conditions: buffer with 10 mM CaCl2
Procedure: Wells of a microtiter plate were coated with 10 μg/ml of EP antigen and blocked with a blocking buffer containing 0.1% BSA in IntL-ELISA buffer (20 mM HEPES pH7.4; 150 mM NaCl; 10 mM CaCl2); 0.1% Tween-20. Ref: Wesener et al. (2015) Nature Structural & Molecular Biology, 22(8):603). Recombinant human IntL-1 (rintL-1) was serially diluted tenfold in blocking buffer starting at 10^−6 M, and incubated on the EP-coated plate for 2 h at 30° C., followed by washes with IntL-ELISA buffer. The bound IntL was detected by an anti-omentin Rabbit IgG ab (Millipore) diluted 1:1000 in blocking buffer and incubated at 30° C. for 2 h. Wells were again washed and incubated with a goat anti-Rabbit IgG-AP at 1:1000 for 1 h at 30° C. Following another wash, the color was developed by AP substrate for 30 minutes at 37° C.
Conidia from Aspergillus fumigatus were counted and adjusted to 10^6/mL in Sabouraud's Dextrose broth, and grown for 6 hours at 37° C. to germinate (forming hyphae). The collection of swollen, germinating conidia and growing hyphae from already-germinated conidia were killed with heat at 90° C. for 1 h. The fungal material (killed conidia and hyphae) was pelleted by centrifugation, resuspended in IntL-ELISA blocking buffer, and incubated with 10^−7 M rIntL-1 (FLAG-tagged) in presence of 10 μg/mL of either MAb476 or an irrelevant, isotype control antibody mouse IgM for 2 h at 30° C. […]

[3] = Western blot of urine with mAb476; type: binding, human
Procedure: Studies were performed using urine collected from control patients (pooled) and patient who had Aspergillus infection (VU7). The samples were run in a reducing SDS polyacrylamide gel electrophoresis (PAGE), and the resolved proteins were transferred to a nylon membrane for performing a Western Blot. Some samples used concentrated urine (denoted by “c”) using an Amicon concentrator or were pretreated by desalting columns (denoted by “ds”).

[4] = Immunoprecipitation of urine with mAb476-coated dynabeads; type: binding, human; conditions: normal urine
Procedure: Studies were performed to identify the proteins that are bound by mAb476 after immunoprecipitation, using mass spectrophotometry. To enrich sample detection of moieties specifically binding to mAb476, urines were incubated with superparamagnetic dynabeads coated with mAb476 and a mouse control antibody. mAb476 reactive material was eluted with 50 mM glycine (pH 2.5-3.0). […] Reactivity to mAb476 eluates was confirmed by sandwich ELISA. Eluates were then run on SDS-PAGE gels to check for band patterns, and in-solution mass spectrometry analysis was performed. Analysis detected the microbial antigen CelA/Aspf7 (a galF-containing 0-glycan).

| Molecule | binding to whole cells (conidia & hyphae) ([1]; 10^−7 M FLAG-tagged rIntL-1, heat-killed Af293 conidia and hyphae) | binding to Aspergillus ethanol precipitate [2] | reactive bands in Western blot ([3]; healthy human pooled urine) | molecular weight of reactive bands in Western blot ([3]; urine from patients with aspergillosis) [kDa] | binding in immunoprecipitation [4] | effect on cellular rINTL-1 binding (galF recognition) ([1]; 10 μg/mL antibody with 10^−7 M rIntL-1) |
| --- | --- | --- | --- | --- | --- | --- |
| rINTL-1: Recombinant human IntL-1 (intelectin-1), FLAG-tagged in the cell binding test (protein) TDEANTYFKEWTCSSSPSLPRSCKEIKDECPSAFDGLYFLRTENGVIYQTFCDMTSGGGGWTLVASVHENDMRGKCTVGDRWSSQQGSKAVYPEGDGNWANYNTFGSAEAATSDDYKNPGYYDIQAKDLGIWHVPNKSPMQHWRNSSLLRYRTDTGFLQTLGHNLFGIYQKYPVKYGEGKCWTDNGPVIPVVYDFGDAQKTASYYSPYGQREFTAGFVQFRVFNNERAANALCAGMRVTGCNTEHHCIGGGGYFPEASPQQCGDFSGFDWSGYGTHVGYSSSREITEAAVLLFYR | binds to whole cells | bound Aspergillus ethanol precipitate with high affinity |  |  |  |  |
| mAb476: galF-specific monoclonal antibody, VH domain of SEQ ID NO:9 and VL domain of SEQ ID NO:10 (antibody, V domains shown) VH: EVQLEESGGGLVQPGGSLRLSCATSGFTFSDFYMEWVRQTPGERLEWIAASRNKANDYTAEYSASVKGRFTVFRDTSQNILYLQMNALRAEDTAAYYCARDADYGKTFSWYFDVWGAGTTVTVSS VL: DIVMTQDELSNPVTSGESVHISCRSSKSLLYKDGKTYLNWFLQRPGQSPQLLIYLMSTRASGVSDRFSGSGSGTDFTLEISRVKAEDVGVYYCQQLVEYPLTFGAGTKLELK |  |  | no reactive bands | 26 to 35 | No mAb476 binding occurred | GalF recognition is reduced |
